Target: complement receptor type 3 (CR3), heterodimer of CD11b and CD18 (human) (UniProt P11215)
Test: cell-based or functional assay

Substance	invasion inhibition of endo- and ectocervical cells (gentamicin-resistance assay)	invasion inhibition, ectocervical cells (gentamicin-resistance assay)	invasion inhibition, endocervical cells (gentamicin-resistance assay)
Bear1 anti-CD11b antibody (Immunotech)	> 93%	–	–
H5A4 anti-CD11b monoclonal antibody (Developmental Studies Hybridoma Bank)	> 93%	100%	99.9%
IB4 anti-CD18 antibody	> 93%	–	–

— patent US20040253222A1
